Usually Kd stands for the equilibrium constant for the complex coming apart. A high value points to lower affinity.

No end group written: not given here. *: point of attachment. Biotin = O=C1N[C@H]2[C@H](CS[C@H]2CCCCC(=O)*)N1

Assay [1] deals with T1, pyr-apelin-13-biotin (pE-RPRLSHKGPMPF-biotin) (N-terminal pyroglutamate (pE); C-terminal biotin).
T1 construct: also called pyrAPL13-Biotin
T1 peptide: ERPRLSHKGPMPF
In words: SPR (Biacore), pyr-apelin-13-biotin on streptavidin chip. The protocol: (§1) Anti-apelin mAbs at four different concentrations (12.5 nM, 25 nM, 50 nM and 100 nM) were captured on the chip surface. The on- and off-rate for antibody-antigen binding were measured, curve fitted and calculated.
(In SPR one partner is held on a chip, and binding of the other changes the refractive index at the surface.)

Assay [2] deals with T2, apelin-13-biotin (…-biotin) (C-terminal biotin).
T2 construct: also called APL13-Biotin
In words: SPR (Biacore), apelin-13-biotin on streptavidin chip. The protocol: as §1

Another assay has as its target T3, Biotin-APL17.
T3 peptide: Biotin-KFRRQRPRLSHKGPMPF
The assay can be described thus: ELISA, peptide on neutravidin plate, mAb 200 ng/ml, A405. Background: ELISA stands for enzyme-linked immunosorbent assay.

The target in the next assay is T4, APL17-Biotin.
T4 peptide: KFRRQRPRLSHKGPMPF-biotin
The description is as above.

Assay [3] has as its target T5, alanine scanning peptide 5A (QRPRA).
T5 peptide: QRPRA
In words: competition ELISA, captured mAb, peptide competes with apelin-13-biotin, A405. The protocol: (§2) Each peptide or control sample was assayed in duplicate for a given mAb.

For assay [4], the target named is T6, alanine scanning peptide 4A (QRPAL).
T6 peptide: QRPAL
The assay is described as above. The protocol:
as §2

In assay [5] the target is T7, alanine scanning peptide 3A (QRARL).
T7 peptide: QRARL
The description is as above. The method, then: as §2

The target in assay [6] is T8, alanine scanning peptide 1A (ARPRL).
T8 peptide: ARPRL
The assay is described as above. The protocol:
as §2

For assay [7], the target named is T9, alanine scanning peptide 2A (QAPRL).
T9 peptide: QAPRL
Described as above. The method, then: as §2

Assay [8] addresses T10, apelin peptide 1-9 (QRPRLSHKG).
T10 peptide: QRPRLSHKG
The description is as above.

Assay [9] concerns the target T11, apelin peptide 2-13 (RPRLSHKGPMPF).
T11 peptide: RPRLSHKGPMPF
The description is as above.

In assay [10] the target is T12, apelin peptide 1-7 (QRPRLSH).
T12 peptide: QRPRLSH
The description is as above.

In assay [11] the target is T13, apelin peptide 1-5 (QRPRL).
T13 peptide: QRPRL
The description is as above.

Assay [12] deals with T14, apelin peptide 1-6 (QRPRLS).
T14 peptide: QRPRLS
The description is as above.

Assay [13] concerns the target T15, apelin peptide 1-10 (QRPRLSHKGP).
T15 peptide: QRPRLSHKGP
Described as above.

The target of assay [14] is T16, apelin peptide 1-12 (QRPRLSHKGPMP).
T16 peptide: QRPRLSHKGPMP
The assay is described as above.

The target in assay [15] is T17, apelin 17 (competition peptide 1-17, KFRRQRPRLSHKGPMPF).
T17 peptide: KFRRQRPRLSHKGPMPF
The description is as above.

For assay [16], the target named is T18, apelin peptide 1-11 (QRPRLSHKGPM).
T18 peptide: QRPRLSHKGPM
The description is as above.

The target in assay [17] is T19, apelin peptide 1-8 (QRPRLSHK).
T19 peptide: QRPRLSHK
Described as above.

The target of the next assay is T20, 1-4.
T20 construct: also called apelin peptide 1-4 (QRPR)
T20 peptide: QRPR
Described as above.

B1: anti-apelin mAb C7 (antibody, V domains shown)
VH: QSLEESGGRLAKPDETLTLTCTVSGIDLNSHAMDWVRQAPGKGLEWIGVIAPDTRTYYATWARGRFTISKTSSTSVELKMTSLTTEDTATYFCAAYPIEPGANIWGPGTLVTVSS
VL: DPVLTQTPSPVSAPVGGTVTIGCQASESVDYNNQLSWYQQKPGQAPKRLMYYVSTLDSGVPSRFKGSGSGTQFTLTISDLECDDAATYYCQGGYPYNIYPFGGGTEVVVK
notes: recombinant rabbit IgG made in HEK293 cells
As for B1, the Kd in assay [1] stood at 0.326 pM; in [2], 3.14 pM. For the same molecule, the binding result with Biotin-APL17 is given as “no binding (tested: 200 ng/ml)”; with APL17-Biotin, “no binding (tested: 200 ng/ml)”; in assay [3] it was “no binding (tested: peptide concentration not stated)”; in [4], “no binding (tested: peptide concentration not stated)”; in assay [5], “no binding (tested: peptide concentration not stated)”; in [6], “no binding (tested: peptide concentration not stated)”. Besides, the binding result is recorded as “no binding (tested: peptide concentration not stated)” in [7]; “binds” in assay [8]; “no binding (tested: peptide concentration not stated)” in assay [9]; “binds” in [10]; “binds” in assay [11]; “binds” in assay [12]. Further, the binding result is “binds” in assay [13]; “binds” in assay [14]; “no binding (tested: peptide concentration not stated)” in assay [15]; “binds” in [16]; “binds” in [17]; “no binding (tested: peptide concentration not stated)” with 1-4.
